The target of experiment [1] is GFP-tagged WT NuMA-tail II (aa 1868–2091) (human) (UniProt Q14980). Put plainly: ITC. For orientation: Isothermal titration calorimetry measures the heat released or taken up as one component is titrated into another.
For experiment [2] the target is unchanged. Nature of the experiment: TIRF microscopy of GFP-tagged protein on immobilised microtubules.
Experiment [3] has as its target NuMA-tail (1970–2091)—GFP (human) (UniProt Q14980). Described as above.

What is called Kd is the equilibrium constant for the complex coming apart. A high value points to a looser complex.

With “1:1 stoichiometric mixture of full-length Importin-α and Importin-β (from UniProt P52292 1-529; Q14974 1-876) (complex)”, in experiment [1], the Kd came to 2.2 µM. The substance also returned a fold reduction of the GFP signal of m1 on microtubules in experiment [2] of 50 fold. In experiment [3], the fold reduction of the microtubule binding of m17 worked out at 80 fold.

In experiment [1], “Importin-α lacking the Importin-β binding (IBB) domain (aa 70–524), mouse (from UniProt P52293 70-524) (domain or fragment)” yielded a Kd of 0.25 µM.

(Values after paper PMC5674899.)
